Experimental data: patent US20240141047A1 (AGENUS, published 2024)

Target: T1, human TIGIT fused to Fc (human, UniProt Q495A1 22-141)
T1 construct: Called a dimeric form of TIGIT; also called human TIGIT-Fc; human dimeric TIGIT-Fc; not shown: Fc
T1 sequence: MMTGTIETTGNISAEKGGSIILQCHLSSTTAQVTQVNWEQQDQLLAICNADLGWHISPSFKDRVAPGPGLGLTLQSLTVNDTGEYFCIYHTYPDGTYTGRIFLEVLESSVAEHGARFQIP
Assay: SPR, human TIGIT-Fc captured on CM5 chip, BA002 Fab in solution, 1:1 model
Procedure: Briefly, surface plasmon resonance experiments were performed using a Biacore T200 instrument, and the association rate (Kₐ), dissociation rate (Kd), and dissociation constant (KD) were calculated from each experiment using a 1:1 binding model with Biacore T200 Evaluation Software.
In a similar experiment measuring binding of a monovalent form of BA002 to human TIGIT-Fe, human TIGIT-Fc was captured on flow-cell 2 of a CM5 chip, keeping flow-cell 1 as reference, at a flow rate of 5 μL/min. […] The higher calculated dissociation rate between human TIGIT-Fc and BA002 Fab, relative to the calculated dissociation rate between human TIGIT-Fc and full-length BA002 described above, is consistent with the presence of an avidity effect with the bivalent form of BA002.

Kd: 6.8 nM | koff: 0.019 s⁻¹ | kon: 2.8e+06 M⁻¹ s⁻¹
B1: BA002 in Fab format (Fab, V domains shown)
VH: EVQLVQSGAEVEKPGASVKVSCKASGYTFASYGISWVRQAPGQGLEWMGGITPFFNRVDVAEKFQGRVTITADTSTNTVYIELSSLTSEDTAVYYCARDLRRGGVGDAFDIWGRGTLVTVSS
VL: QSALTQPRSVSGSPGQSVTISCTGTSSDVGSHNYVSWYQQHPGKAPQLMIYEVSYRPSEISNRFSGSKSGNTASLTISGLQPEDEADYYCSSYTPSSATVFGAGTKLTVLG
modifications: chain 1 pos 1: glutamate or pyroglutamate (from Glu), written E; chain 2 pos 1: glutamine or pyroglutamate (from Gln), written Q
notes: also called BA002 Fab; monovalent form of BA002
